Assay results: US20240376149A1, “Novel Modulators of GABABR1a” (VIB VZW, priority 2021, published 2024)
Where two headings read alike, the source gives them in different places. *1 amine or outer side, *2 acyl side, *3 side chain or, on linkers, in order; H or OH if unused. Where a SMILES comes first, the peptide text is derived from it. Where no end group is shown, it is not given here. [ ]: non-standard residue; d: D form. NEtW = N-ethyl-tryptophan (F149), CCN([C@@H](Cc1c[nH]c2ccccc12)C(=O)[*:2])[*:1]; X2 = O=C([C@H](CC1CCC(F)(F)CC1)N[*:1])[*:2]; 2Nal = N[C@@H](Cc1ccc2ccccc2c1)C(=O)O; Cha = N[C@@H](CC1CCCCC1)C(=O)O; F182 = not defined here; F72 = not defined here

What was measured:
[1] = biological target: T1, HEK293 cells expressing the ectodomain of GABABR1a comprising SD1 (Homo sapiens, UniProt Q9UBS5); experiment: Flow-cytometry cell-based binding assay, competition with biotinylated 9-mer; settings: peptide at 100 μM, inhibition of biotin-9mer (10 μM) binding
T1 construct: HEK293 were transfected with plasmids encoding the ectodomain of GABABR1a (as in Rice et al., 2019); expressed in transfected cells; host or cells: HEK293
Description: HEK cells expressing GABABR1a-SD1 were incubated with peptides of the application and the binding of 9-mer in the presence of the peptides was measured. The 9-mer peptide is biotinylated and detected with a commercial antibody.
(§1) Next, the top ranking compounds were tested in a cell-based binding assay. HEK293 cells were transformed to express the ectodomain of GABABR1a comprising SD1. In this cell-based assay, SD1 is expressed on the GABABR1a ectodomain and can adopt a more physiological conformation, compared to the purified SD1 protein used in the primary assay (FP assay).
(§2) HEK293 were transfected with plasmids encoding the ectodomain of GABABR1a (as in Rice et al., 2019), carrying a His-tag at the N-terminal. After 24 h of expression, cells were harvested and adjusted to a concentration of 1×10^6 cells/mL in ice-cold 2% FBS/PBS. Incubation with each peptide (in dose-response curve) was carried out at 4° C. for 1 h, followed by incubation with the biotion-9mer (10 μM) peptide during 30 min. Detection antibodies recognizing either His protein or biotin were added for a period of 30 min. The assay plate containing the cells was loaded into the Attune NxT Cytometer, parameters were adjusted accordingly with the cell type and signal intensity. In each experiment, positive and negative control were added to the plate.

[2] = biological target: T2, GABABR1a-SD1 (SD1-FITC-9mer complex) (Homo sapiens, UniProt Q9UBS5); experiment: Fluorescence polarization (FP) competition assay with FITC-9mer; format: binding; settings: peptide at 50 μM; inhibition of FITC-9mer binding to SD1
T2 construct: The synthetic gene encoding for residues 26-96 of the Sushi1 protein was cloned into a pFloat-SUMO vector; His-SUMO (with 3C protease site) (N, cleaved yes); made in house; host or cells: E. coli BL21(DE3)
Description: Intrigued by the surprising results of the 5-mer, it was decided to set up a medium- to high-throughput screen to optimize the 5-mer sequence. Several assays were tested to find a reproducible, robust and cost-effective assay that is also suitable for high-throughput screening. A fluorescence polarization (FP) assay was selected. FP measurements are well-known for receptor binding assays. The assay is based on the rotational movement of fluorescently labelled molecules in solution. […] The FP assay was optimized using the FITC labelled sAPP 9-mer (FIG. 1).
(§3) To screen for GABABR1a binders using unlabelled test compounds, the assay was turned into a competition assay using FITC-9mer. […] To validate this inhibitor assay, the IC50 values were determined of the 17-mer, 9-mer, 5-mer as well as those from 3 negative controls: 10-mer, scrambled 17-mer and a scrambled 9-mer (FIG. 2).
(§4) To determine if the peptides of this application were able to disrupt the SD1-9-mer complex, each peptide (in single point or dose-response curve) tested was incubate with SD1 protein for 1 h at RT. After this initially incubation, FITC-9mer was added to the previous mix and incubated during 2 h at RT. The signal intensity was measure in an appropriate plate reader using the following settings: Number of flashes per well: 200; Excitation: F482-16; Dichroic filter: FLP 504; Emission A F530-40; Gain A: 738, Gain B: 736. The assay was conducted in a 384-well plate.

[3] = biological target: T3, Ectodomain of GABABR1a comprising SD1, expressed on HEK293 cells with N-terminal His-tag (human, UniProt Q9UBS5 20-591, limits assumed); experiment: flow cytometry competition vs biotin-9mer on HEK293 cells expressing GABABR1a ectodomain
T3 construct: extracellular domain; also called GABABR1a-SD1 (on cells); GABABR1a ectodomain
Description: as §1, with “assay). Before testing the active compounds, it was confirmed that 9-mer (tagged with Biotin) binds specifically to cells expressing GABABR1a-SD1 and not GABABR1b.” for “assay).”
as §2

[4] = biological target: T4, Sushi domain 1 of the human GABA B1a receptor (human, UniProt Q9UBS5 26-96); experiment: FP competition vs FITC-9mer on purified SD1
T4 construct: Purified recombinant protein from E. coli; also called SD1; GABABR1a-SD1
Description: as §3
Based on structural information of DIYWS-SD1 and DIWWS-SD1 co-crystals, 48 peptides containing non-natural residues were manually designed and checked for binding to the GABABR1a SD1 in the FP assay at a concentration of 50 μM. These non-natural peptides were categorized based on the IC50 values obtained in the FP assay (Table 3). […] The listed non-natural 5-mers all share D-aspartate was on position 1 (residue position 4 of the 9-mer), L-isoleucine on position 2 (residue position 5 of the 9-mer), L-tryptophane on position 4 (residue position 7 of the 9-mer) and L-serine on position 5 (residue position 8 of the 9-mer), while position 3 is selected from the list consisting of L-tyrosine, isoethylmethyl-benzene, 6-chloro-3-methyl-1H-indole, methylcyclohexane, ethylcyclohexane, 2-naphthalene, ethylbenzene, 1,1-difluoro-4-cyclohexyl, 4-methyl-1-methoxy-2-methylbenzene, 1-chloro-4-methylbenzene, 4-methylphenyl-methanol, 3-methylbenzoic acid and 4-methylaniline.

[5] = biological target: T4, Sushi domain 1 of the human GABA B1a …; experiment: ITC, peptide titrated into purified SD1
Description: (§5) The Sushi-1 protein was dialysed overnight to PBS buffer and diluted to 30 μM in the same buffer. The peptides were resuspended in PBS at a stock concentration of 3 mM and diluted further in the same buffer to 300 μM. ITC experiments were performed on a Microcal ITC200 device. Titrations comprised 26×1.5 μL injections of peptide into protein, with 90 s intervals. An initial injection of ligand (0.5 μL) was made and discarded during data analysis. The data were fitted to a single binding site model using the Microcal LLC ITC₂₀₀. Original software provided by the manufacturer.

[6] = biological target: T4, Sushi domain 1 of the human GABA B1a …; experiment: ITC, peptide titrated into purified SD1; remark: listed apart in the source
Description: First, we wondered whether the wild-type sAPP 9-mer peptide would be the optimal sequence in terms of SD1 binding or whether sequence variants of the sAPP 9-mer would have improved binding to the GABABR1a-SD1. Therefore a panel of single and double sAPP 9-mer mutants was generated. An alanine scan was performed for the residues on position 1 to position 7. Based on an ITC assay, these single mutant peptides bound the SD1 with the same or slightly higher Kd (Table 1). Also the double mutants VIB_P04, VIB_P05 and VIB_P19 bound with a similar Kd to SD1 compared to the wild-type 9-mer. We have also tested the effect of the D-isomer of the amino residues on position 1 to 4, in single or multiple combinations. None of the mutations had strong effects on the measured Kd (Table 1). We therefore conclude that the wild-type sAPP 9-mer is already optimized but that many variants bind as good to SD1 and thus will modulate GABABR1a in a similar manner.
as §5

[7] = biological target: T4, Sushi domain 1 of the human GABA B1a …; experiment: FP competition vs FITC-9mer on purified SD1; remark: listed apart in the source
Description: Next, 35 variants of the DVWWG 5-mer peptide containing natural residues were tested in the above described FP assay. The peptides were tested at a concentration of 50 μM.
as §4

T3 sequence (Q9UBS5 20-591 limits assumed): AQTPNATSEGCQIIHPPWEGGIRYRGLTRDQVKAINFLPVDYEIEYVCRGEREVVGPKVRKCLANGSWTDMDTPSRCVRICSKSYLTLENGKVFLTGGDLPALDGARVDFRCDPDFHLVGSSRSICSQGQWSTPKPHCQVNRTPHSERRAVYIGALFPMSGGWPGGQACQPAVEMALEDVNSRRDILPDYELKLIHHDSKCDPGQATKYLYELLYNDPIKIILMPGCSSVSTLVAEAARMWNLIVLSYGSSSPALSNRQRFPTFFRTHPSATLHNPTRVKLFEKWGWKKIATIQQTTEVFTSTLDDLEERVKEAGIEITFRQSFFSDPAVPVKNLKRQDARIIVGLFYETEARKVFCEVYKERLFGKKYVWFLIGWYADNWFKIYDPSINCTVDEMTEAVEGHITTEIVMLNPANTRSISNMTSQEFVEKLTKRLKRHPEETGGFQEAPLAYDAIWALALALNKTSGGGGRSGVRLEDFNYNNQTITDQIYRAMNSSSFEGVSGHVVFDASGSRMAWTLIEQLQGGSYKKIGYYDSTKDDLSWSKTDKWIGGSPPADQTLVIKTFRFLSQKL
T1 sequence (Q9UBS5 20-591 limits assumed): as above
T4 sequence (Q9UBS5 26-96 limits assumed): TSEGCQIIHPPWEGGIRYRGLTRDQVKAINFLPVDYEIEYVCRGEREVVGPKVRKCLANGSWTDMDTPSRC
T2 sequence (Q9UBS5 26-96, one chain of several): as the sequence (Q9UBS5 26-96 limits assumed) above

## CC[C@H](C)[C@H](NC(=O)[C@H](N)CC(=O)O)C(=O)N[C@@H](CC1CCCCC1)C(=O)N[C@@H](Cc1c[nH]c2ccccc12)C(=O)N[C@@H](CO)C(=O)O [VIB-0068905] (H-[dD]I[Cha]WS-OH; N-terminus and C-terminus assumed)
[1]
  inhibition at 100 µM: 68.3%
[2]
  inhibition at 50 µM: 94.8%

## CC[C@H](C)[C@H](NC(=O)[C@H](N)CC(=O)O)C(=O)N[C@@H](CC1CCC(F)(F)CC1)C(=O)N[C@@H](Cc1c[nH]c2ccccc12)C(=O)N[C@@H](CO)C(=O)O [VIB-0068907] (H-[dD]I[X2]WS-OH; N-terminus and C-terminus assumed)
[1]
  inhibition at 100 µM: 47.2%
[2]
  inhibition at 50 µM: 86.2%

## CC[C@H](C)[C@H](NC(=O)[C@H](N)CC(=O)O)C(=O)N[C@@H](CCc1ccccc1)C(=O)N[C@@H](Cc1c[nH]c2ccccc12)C(=O)N[C@@H](CO)C(=O)O [VIB-0068910]
[1]
  inhibition at 100 µM: 54.2%
[2]
  inhibition at 50 µM: 88.6%

## CC[C@H](C)[C@H](NC(=O)[C@H](N)CC(=O)O)C(=O)N[C@@H](Cc1ccc2ccccc2c1)C(=O)N[C@@H](Cc1c[nH]c2ccccc12)C(=O)N[C@@H](CO)C(=O)O [VIB-0068895] (H-[dD]I[2Nal]WS-OH; N-terminus and C-terminus assumed)
[1]
  inhibition at 100 µM: 77%
[2]
  inhibition at 50 µM: 96.3%

B1: VIB-0068910 (peptide)
peptide: DIXWS
modifications: D-aspartic acid at position 1; position 3 (X) is the non-natural residue F70 = ethylbenzene
notes: Peptidomimetic 5-mer; X marks the non-natural residue
[3]
  % inhibition 100 µM: 54.2%
[4]
  % inhibition 50 µM: 88.6%
  IC50: 11.9 µM
[5]
  Kd: 2.9 µM

B2: VIB_P10 (peptide)
peptide: DD[dS]DVWWGG
notes: Printed as DD{D-SER}DVWWGG
[6]
  Kd: 8.47 µM

B3: VIB-0068903 (peptide)
peptide: DIXWS
modifications: D-aspartic acid at position 1; position 3 (X) is the non-natural residue F141 = ethylcyclohexane
notes: as for B1
[3]
  % inhibition 100 µM: 76%
  IC50: 154 µM
[4]
  % inhibition 50 µM: 93.9%
  IC50: 8.22 µM
[5]
  Kd: 0.93 µM

B4: VIB_P33 (peptide)
peptide: DVWWG
notes: also called DVWWG 5-mer; wild-type 5-mer
[6]
  Kd: 9.09 µM
[5]
  Kd: 9.09 µM
[7]
  % inhibition 50 µM: 66%

B5: VIB_P34 (peptide)
peptide: DIWWS
notes: also called VIB_34; DIWWS
[5]
  Kd: 1.02 µM
[7]
  % inhibition 50 µM: 81.9%

B6: VIB_P36 (peptide)
peptide: DIHWG
[5]
  Kd: 18.4 µM
[7]
  % inhibition 50 µM: 25.5%

B7: VIB-0068904 (peptide)
peptide: [dD]I[NEtW]WS
notes: Peptidomimetic 5-mer; position 3 is written W for N-ethyl-tryptophan
[4]
  % inhibition 50 µM: 26.7%
[5]
  Kd: 1.02 µM

B8: VIB_P08 (peptide)
peptide: [dD]DSDVWWGG
[6]
  Kd: 6.45 µM

B9: VIB_P01 (peptide)
peptide: DASDVWWGG
[6]
  Kd: 12.2 µM

B10: VIB_P19 (peptide)
peptide: AASDVWWGG
[6]
  Kd: 18.1 µM

B11: VIB_P04 (peptide)
peptide: DASAVWWGG
[6]
  Kd: 5.85 µM

B12: VIB_P03 (peptide)
peptide: DDSAVWWGG
[6]
  Kd: 10 µM

B13: VIB_P02 (peptide)
peptide: DDADVWWGG
[6]
  Kd: 3.68 µM

B14: VIB_P12 (peptide)
peptide: ADSDVWWGG
[6]
  Kd: 7.58 µM

B15: VIB-0068905 (peptide)
peptide: DIXWS
modifications: D-aspartic acid at position 1; position 3 (X) is the non-natural residue F15 = methylcyclohexane
notes: as for B1
[3]
  % inhibition 100 µM: 68.3%
  IC50: 78.8 µM
[4]
  % inhibition 50 µM: 94.8%
  IC50: 8.11 µM
[5]
  Kd: 0.25 µM

B16: VIB-0068907 (peptide)
peptide: [dD]I[F182]WS
modifications: not fully specified; reading uncertain
notes: as for B1
[3]
  % inhibition 100 µM: 47.2%
  IC50: 49.2 µM
[4]
  % inhibition 50 µM: 86.2%
  IC50: 12.6 µM
[5]
  Kd: 2.47 µM

B17: VIB-0068894 (peptide)
peptide: DIXWS
modifications: D-aspartic acid at position 1; position 3 (X) is the non-natural residue F126 = 6-chloro-3-methyl-1H-indole
notes: as for B1
[3]
  % inhibition 100 µM: 84.2%
  IC50: 28.7 µM
[4]
  % inhibition 50 µM: 96.8%
  IC50: 7.12 µM
[5]
  Kd: 0.34 µM

B18: VIB-0068895 (peptide)
peptide: DIXWS
modifications: not fully specified; D-aspartic acid at position 1; position 3 (X) is the non-natural residue F195 = 2-naphtalene
notes: as for B1
[3]
  % inhibition 100 µM: 77%
  IC50: 43.3 µM
[4]
  % inhibition 50 µM: 96.3%
  IC50: 11.1 µM
[5]
  Kd: 1.39 µM

B19: VIB_P11 (peptide)
peptide: DDS[dD]VWWGG
notes: Printed as DDS{D-ASP}VWWGG
[6]
  Kd: 6.21 µM

B20: VIB_P06 (peptide)
peptide: DDSDVWW
[6]
  Kd: 25.8 µM

B21: VIB-0068911 (peptide)
peptide: [dD]I[F72]WS
modifications: not fully specified; reading uncertain
notes: as for B1
[3]
  % inhibition 100 µM: 90%
  IC50: 38 µM
[4]
  % inhibition 50 µM: 98.1%
  IC50: 6.54 µM
[5]
  Kd: 0.54 µM
